Measured values reported in patent publication US20180236026.

What was measured:
[1] = test system: synthetic purified T1A peptide
[2] = target: T1, synthetic purified T1A peptide
T1 chain: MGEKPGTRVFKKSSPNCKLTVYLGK

## MKK7 (purified)
[1]
  optimal T1A concentration for JNK3 phosphorylation by MKK7, against full-length arrestin-3: in both cases optimal T1A concentrations were ˜10-times lower than those of full-length arrestin-3

B1: MKK4 (purified) (protein)
chain: MAAPSPSGGGGSGGGSGSGTPGPVGSPAPGHPAVSSMQGKRKALKLNFANPPFKSTARFTLNPNPTGVQNPHIERLRTHSIESSGKLKISPEQHWDFTAEDLKDLGEIGRGAYGSVNKMVHKPSGQIMAVKRIRSTVDEKEQKQLLMDLDVVMRSSDCPYIVQFYGALFREGDCWICMELMSTSFDKFYKYVYSVLDDVIPEEILGKITLATVKALNHLKENLKIIHRDIKPSNILLDRSGNIKLCDFGISGQLVDSIAKTRDAGCRPYMAPERIDPSASRQGYDVRSDVWSLGITLYELATGRFPYPKWNSVFDQLTQVVKGDPPQLSNSEEREFSPSFINFVNLCLTKDESKRPKYKELLKHPFILMYEERAVEVACYVCKILDQMPATPSSPMYVD
[2]
  JNK3 phosphorylation by MKK4 as a function of T1A concentration (in vitro kinase assay, purified proteins): the optimal concentration of T1A for promoting JNK3 phosphorylation by MKK4 is lower than for MKK7-JNK3 module
  optimal T1A concentration for JNK3 phosphorylation by MKK4, against full-length arrestin-3: in both cases optimal T1A concentrations were ˜10-times lower than those of full-length arrestin-3
